Consider three molecules from patent US20220242958A1, “BISPECIFIC NANOBODIES” (Ablynx N.V., priority 2013, published 2022).

Assay [1] concerns the target T1, human IL-23R extracellular domain Fc-fusion (Homo sapiens, UniProt Q5VWK5).
T1 construct: Fc-fusions of human IL12Rβ1, IL12Rβ2 and IL-23R extracellular domains; purchased R&D Systems #1400-IR
T1 sequence (Q5VWK5 24-355 limits assumed): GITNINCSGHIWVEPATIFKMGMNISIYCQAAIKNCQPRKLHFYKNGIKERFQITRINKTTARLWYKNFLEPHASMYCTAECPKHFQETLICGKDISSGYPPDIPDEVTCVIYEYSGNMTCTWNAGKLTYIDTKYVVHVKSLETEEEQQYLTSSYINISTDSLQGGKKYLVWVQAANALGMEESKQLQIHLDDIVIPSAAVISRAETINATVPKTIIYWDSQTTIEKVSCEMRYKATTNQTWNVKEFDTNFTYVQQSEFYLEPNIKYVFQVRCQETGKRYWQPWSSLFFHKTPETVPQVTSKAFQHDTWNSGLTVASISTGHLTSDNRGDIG
The assay is described as follows: SPR (Biacore T100) on IL-23R-Fc. The format is binding. On the procedure: (§1) The precise binding affinities of the purified Nanobodies were determined in a multi-cycle kinetic analysis using Surface Plasmon Resonance analysis (Biacore T100) on Fc-fusions of human IL12Rβ1, IL12Rβ2 and IL-23R extracellular domains (R&D Systems, #839-B1, #1959-B2, #1400-IR). Sensorchips CM5 were immobilized with anti-hIgG antibody (GE Healthcare, BR-1008-39), after which receptors were captured at 5 μg/ml protein and contact time of 120 seconds. Running buffer used was HBS-EP+ (GE Healthcare, BR-1006-69) at 25° C., with a flow-rate of […]. For immobilization by amine coupling, EDC/NHS was used for activation and ethanolamine HCl for deactivation (Biacore, amine coupling kit). Nanobodies were evaluated at a concentration range between 1.37 nM and 3 μM. Nanobodies were allowed to associate for 2 min and to dissociate for 15 min at a flow rate of […]. In between injections, the surfaces were regenerated with a 3 min pulse of 3M MgCl2 and 2 min stabilization period. Evaluation of the association/dissociation data was performed by fitting a 1:1 interaction model (Langmuir binding model) by Biacore TWO software v2.0.3.

Assay [2] deals with T2, IL23R on Th17 differentiated T cells (Homo sapiens, UniProt Q5VWK5).
T2 construct: endogenous in cells; host or cells: T cells within human PBMCs differentiated towards Th17
T2 sequence (Q5VWK5 24-629): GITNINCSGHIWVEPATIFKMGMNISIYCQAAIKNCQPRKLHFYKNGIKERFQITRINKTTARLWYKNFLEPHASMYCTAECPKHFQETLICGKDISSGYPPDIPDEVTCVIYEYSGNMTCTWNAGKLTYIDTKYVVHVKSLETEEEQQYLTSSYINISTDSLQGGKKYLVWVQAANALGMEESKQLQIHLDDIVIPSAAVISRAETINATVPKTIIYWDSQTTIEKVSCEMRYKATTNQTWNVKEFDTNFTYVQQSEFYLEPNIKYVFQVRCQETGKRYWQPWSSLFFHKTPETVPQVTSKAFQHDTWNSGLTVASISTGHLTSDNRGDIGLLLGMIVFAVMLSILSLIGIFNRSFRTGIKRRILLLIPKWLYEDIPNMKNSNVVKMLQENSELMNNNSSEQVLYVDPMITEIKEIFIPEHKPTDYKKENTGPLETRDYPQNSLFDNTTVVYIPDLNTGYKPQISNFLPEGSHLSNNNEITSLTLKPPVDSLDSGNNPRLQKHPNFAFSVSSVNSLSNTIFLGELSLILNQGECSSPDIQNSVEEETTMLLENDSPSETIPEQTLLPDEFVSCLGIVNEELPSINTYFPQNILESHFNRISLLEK
Description: Flow cytometry binding to T cells differentiated towards Th17 phenotype. The note with it: IL23R Nanobodies on Th17 differentiated cells. As to the method:
As the expression of IL23R was very low in the T cell pool, the binding of monovalent IL23R Nanobodies was assessed on cells that were differentiated towards the Th17 phenotype by the incubation of PBMCs in the presence of a cytokine cocktail and IL-23, recombinant IL-6 (eBioscience #34-8069-82), recombinant TGF-b1 (R&D #240-B), anti-human IL-4 antibody(BD#554481), recombinant IL-1b (BD#554602)) and recombinant Human IL-23 (R&D Systems #219-IL-005) with co-stimulation of plate coated OKT-3 (eBioscience #16-0037-85), PeliCluster CD28 (Sanquin #M1650). Following this procedure, low but detectable IL23R expression levels were obtained. Optimization in the Th17 differentiation protocol could further increase these expression levels.
Dose-dependent binding of monovalent Nanobodies was assessed by flow cytometry on the respective Th1 or Th17 enriched T cell populations. Serial dilutions of antibody or Nanobodies were allowed to associate for 30 minutes at 4° C. in FACS buffer (PBS supplemented with 10% FBS and 0.05% azide). Cells were washed by centrifugation and probed with anti-FLAG antibodies (Sigma F1804) for 30 minutes at 4° C., to detect bound Nanobody. Detection was done with Goat anti-Mouse IgG-PE (Jackson ImmunoResearch #115-116-071) for 30 minutes at 4° C. […] The cells were then analysed via a BD FACSArray.

Assay [3] relates to IL-23 dependent IL-17 release, human PBMCs. The assay is described as follows: IL-23 dependent IL-17 release in human PBMCs. Format: cell-based. The note with it: 9 days; donor D840. On the procedure:
In this assay set-up human PBMCs were cultured in the presence of soluble IL23 to allow differentiation of T cells towards the Th17 phenotype. Cells were seeded onto OKT-3 (eBioscience #16-0037-85) coated plates in the presence of recombinant human IL-23 (eBioscience #14-8239) and PeliCluster CD28 (Sanquin #M1650) in solution. Cytokine (IL17) release in the presence or absence of the respectively Nanobodies was determined by ELISA after an incubation period of 9 days.
Dose-dependent inhibition of the panel of bispecific IL23R-CD4 and IL12Rβ1-CD4 polypeptides was assessed in comparison to the respective monovalent Nanobodies, with in this case the IL12Rβ1-CD4 specific polypeptides serving as negative controls. […] There is a preference for the IL12Rβ1 building block in the C-terminal position from CD4 in this assay. There is a clear difference in potency between the two IL12Rβ1 family members, corresponding to the different binding kinetics and affinities, and this difference is preserved in the potency of the bispecific constructs.

Assay [4] addresses T3, human IL12Rβ1 extracellular domain Fc-fusion (Homo sapiens, UniProt P42701).
T3 construct: Fc-fusions of human IL12Rβ1, IL12Rβ2 and IL-23R extracellular domains; purchased R&D Systems #839-B1
The assay is described as follows: SPR (Biacore T100) on IL12Rβ1-Fc. The format is binding. On the procedure:
as §1

Assay [5] deals with activated human T cells. Description: Flow cytometry binding to activated human T cells (TH1). The note with it: IL12Rb1 and IL12Rb2 Nanobodies on TH1 activated T cells. As to the method:
Dose-dependent binding of monovalent Nanobodies to their cell-expressed receptor in the context of the heterodimeric complex was determined by flow cytometry on activated human T cells from distinct healthy donors.
Human T cells were isolated using the Human T Cell Enrichment Cocktail (RosetteSep #15061) and pre-activated for four days with Dynabeads® Human T-Activator CD3/CD28 (Gibco—Life Technologies #11131D) and one day with recombinant human IL-2 (Life Technologies—Gibco #PHC0027) to induce TH1 differentiation. Routinely, T cell markers surface expression and activation state was checked by FACS using anti-CD3 PE (eBioscience #12-0037-73), anti-CD8-PE (BD Bioscience #555367), anti-CD45RO-PE (BD Bioscience #555493), anti-CD45RA-APC (BD Bioscience #550855) anti-CD25-PE (BD Bioscience #557138) and anti-CD69-PE (BD Bioscience #557050). IL12R surface expression was confirmed by FACS using IL12Rβ1 antibody (R&D MAB839), followed by goat anti-mouse PE (Jackson Immuno Research 115-115-164). The expression of IL23R was checked by polyclonal goat anti-IL-23R (R&D AF1400). CD4 surface expression was confirmed by FACS using APC-labelled anti-CD4 (BD Bioscience #345771). […]
Dose-dependent binding of monovalent Nanobodies was assessed by flow cytometry on the respective Th1 or Th17 enriched T cell populations. […] The cells were then analysed via a BD FACSArray.

For assay [6], the system named is IL-12 dependent IFN-γ release, human T cells. Description: IL-12 mediated IFN-γ release in activated human T cells. Format: cell-based. Particulars: 0.2 pM IL-12; 72 h; donor D839. As to the method:
The ability of bispecific polypeptides to simultaneously engage both targets on the same cell was analysed in a IL-12 dependent functional assay, inhibition of IL-12 mediated IFN-γ release in activated human T cells. Since the functional blockade is only mediated via IL12R, avidity by the simultaneous binding of the CD4 Nanobody is expected to translate into increased potency of the bispecific in inhibition of cytokine release.
Isolated human T cells from buffycoats were activated for four days with Dynabeads® Human T-Activator CD3/CD28 (Gibco—Life Technologies #11131D) and one day with IL-2. To differentiate into Th1 subtype, T cells were cultured in presence of IL-12 with co-stimulation provided by plate coated CD3 at 0.5 μg/ml (eBioscience #16-0037-85) and anti-CD28 (1 μg/ml PeliCluster, Sanquin #M1650) in solution.
Dose-dependent blockade of IL-12 mediated IFNγ release was assessed for the bispecific IL-12Rβ2-CD4 and IL-12Rβ1-CD4 polypeptides in both orientations, and the corresponding monovalent Nanobodies. The IL-23R-CD4 bispecific polypeptides served as negative controls. Representative graphs of the bispecific IL12Rβ1-CD4, IL12Rβ2-CD4 and IL23R-CD4 polypeptides are shown in FIG. 3.9, and IC50 values in Table 3.2. […] Although bispecific constructs in both orientations show potency enhancements, the IL12Rβ2 Nanobody in the N-terminal position from CD4 gave stronger enhancements.

The target of assay [7] is EGFR (Homo sapiens, UniProt P00533). Particulars: read-out: affinity to EGFR; cited from earlier work.
The target in assay [8] is Her3 (Homo sapiens, UniProt P21860). Particulars: read-out: affinity to Her3; cited from earlier work.

B1: IL23R#20: IL-23R specific ligand competing Nanobody (protein)
VHH: EVQLVESGGGLVQAGGSLRLSCAASGRTFSSYAMGWFRQAPGKDREFVAAISWIGESTYYADSVKGRFTISRDNAKNTVYLRMNSLKPEDTAVYYCAADLYYTAYVAAADEYDYWGQGTLVTVSS
For B1, in assay [1], the “Binding kinetics (SPR) ka (1/Ms), IL-23R” value was determined as 3e+06 M⁻¹ s⁻¹ and the “Binding kinetics (SPR) kd (1/s), IL-23R” value is 0.23 s⁻¹. Also, the “Binding T cells (FACS) EC50 (M)” value in assay [2] is recorded as “No fit”. Besides, the “IL-17 release PBMC D840 IC50 (M)” value in assay [3] is “no fit”.

B2: IL12Rb1#31: IL-12Rβ1 specific ligand competing Nanobody (protein)
VHH: EVQLVESGGGLVQTGGSLRLSCAASGRTPSIIAMGWFRQTPGKEREFVGEIILSKGFTYYADSVKGRFTISRANAKNTITMYLQMNSLKSEDTAVYYCAARQNWSGNPTRTNEYEYWGQGTLVTVSS
For the molecule B2, in assay [4], the “Binding kinetics (SPR) ka (1/Ms), IL12Rβ1” value is 720000 M⁻¹ s⁻¹ and the “Binding kinetics (SPR) kd (1/s), IL12Rβ1” value amounted to 0.017 s⁻¹. For the same molecule, the “Binding T cells (FACS) EC50 (M)” value in assay [5] is on record as “No fit”. For the same molecule, in assay [6], the “IFNγ release T cells D839 IC50 (M)” value was “no fit”.

B3: MEHD7945A: two-in-one Mab with specificity for EGFR and Her3 (antibody, chains of the INN, looked up, V domains shown)
VH: EVQLVESGGGLVQPGGSLRLSCAASGFTLSGDWIHWVRQAPGKGLEWVGEISAAGGYTDYADSVKGRFTISADTSKNTAYLQMNSLRAEDTAVYYCARESRVSFEAAMDYWGQGTLVTVSS
VL: DIQMTQSPSSLSASVGDRVTITCRASQNIATDVAWYQQKPGKAPKLLIYSASFLYSGVPSRFSGSGSGTDFTLTISSLQPEDFATYYCQQSEPEPYTFGQGTKVEIK
For B3, the Kd is 1.9 nM in assay [7] and 0.39 nM in assay [8].
